Data on two molecules can be found in article PMC12051542, “Identification of the phosphatase essential for riboflavin biosynthesis in Aquifex aeolicus” (The Journal of Biological Chemistry, 2025).

The target in data set [1] is putative phosphatase 17 (PP17), a histidine family phosphatase (HFP), Aquifex aeolicus (Aquifex aeolicus). Nature of the data set: SEC; preparative gel filtration, 120 ml HiLoad 16/600 Superdex 75 prep grade column, 50 mM Hepes pH 8.0, 150 mM NaCl, 20% glycerol.
Data set [2] concerns the molecule itself. Nature of the data set: SEC; 120 ml HiLoad 16/600 Superdex 75 prep grade column, 50 mM Hepes pH 8.0, 150 mM NaCl, 20% glycerol; molecular weight from a standard curve of commercial standard proteins (65 kDa).

Turning to “putative phosphatase 17 (PP17), a histidine family phosphatase (HFP), Aquifex aeolicus (enzyme)”, the stoichiometry N in data set [1] is 2.

B1: putative phosphatase 11 (PP11), annotated as a myo-inositol-1(or 4)-monophosphatase (IMP), Aquifex aeolicus (enzyme)
chain: MENLKKYLEVAKIAALAGGQVLKENFGKVKKENIEEKGEKDFVSYVDKTSEERIKEVILKFFPDHEVVGEEMGAEGSGSEYRWFIDPLDGTKNYINGFPIFAVSVGLVKGEEPIVGAVYLPYFDKLYWGAKGLGAYVNGKRIKVKDNESLKHAGVVYGFPSRSRRDISIYLNIFKDVFYEVGSMRRPGAAAVDLCMVAEGIFDGMMEFEMKPWDITAGLVILKEAGGVYTLVGEPFGVSDIIAGNKALHDFILQVAKKYMEVAV
notes: Aquifex aeolicus putative phosphatase 11, annotated as myo-inositol-1(or 4)-monophosphatase; codon optimised, in pET20b with a stop codon before the C-terminal histidine tag so that the protein is expressed in the native form; Untagged; Two magnesium ions and a phosphate in the active site of the structure; source: E. coli BL21 (DE3), purified (heat 70 °C, gel filtration)
As to B1, in data set [2], the “stoichiometry N” value came to 2.
